Results on 1 substance are retold here after patent publication US20100093076A1, “SOLUBLE IL-27 RECEPTOR” (priority 2006, published 2010).

One assay has as its target T1, huIL-27 (Homo sapiens, UniProt Q14213+Q8NEV9).
T1 construct: purchased R&D Systems
T1 sequence (Q8NEV9 29-243): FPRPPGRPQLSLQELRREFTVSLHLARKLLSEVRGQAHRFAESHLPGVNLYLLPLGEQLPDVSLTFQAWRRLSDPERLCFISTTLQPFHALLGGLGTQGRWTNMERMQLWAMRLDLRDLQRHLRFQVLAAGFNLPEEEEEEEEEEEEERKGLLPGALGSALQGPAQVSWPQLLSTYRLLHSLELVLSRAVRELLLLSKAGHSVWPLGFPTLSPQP
T1 sequence (Q14213 21-229): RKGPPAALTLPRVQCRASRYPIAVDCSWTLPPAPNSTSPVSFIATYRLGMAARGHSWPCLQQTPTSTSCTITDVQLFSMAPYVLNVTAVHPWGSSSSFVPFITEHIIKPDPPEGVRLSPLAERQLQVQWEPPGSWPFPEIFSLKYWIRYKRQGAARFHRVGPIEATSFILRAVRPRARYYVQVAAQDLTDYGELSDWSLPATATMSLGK
The experiment in a line: Phospho-STAT3 (BIO-PLEX) neutralization of IL-27 by soluble receptors, mouse spleens. The format is cell-based. The following applies: ligand huIL-27 at EC90 (2 nM). The text has this:
(§1) Whole mouse spleens were harvested from C57 B1/6 mice and washed two times with 1×PBS before being plated out at 2×10^5 cells/well in assay media (RPMI 1640 plus 10% fetal bovine serum) in 96-well, round-bottom tissue culture plates. Total human PBMC (peripheral blood mononuclear cells) were thawed from a frozen vial collected from a leukapherisis donation and washed two times with 1×PBS before being plated out at 10^6 cells/well in assay media in 96-well, round-bottom tissue culture plates. […] Following pre-incubation, treatments were added to the plates containing the cells and incubated together at 37° C. for 15 minutes.
(§2) Following incubation, cells were washed with ice-cold wash buffer (BIO-PLEX Cell Lysis Kit, BIO-RAD Laboratories, Hercules, Calif.) and put on ice to stop the reaction according to manufacturer's instructions. […]
(§3) Capture beads (BIO-PLEX Phospho-Stat3 Assay, BIO-RAD Laboratories) were combined with 50 μL of 1:1 diluted lysates and added to a 96-well filter plate according to manufacture's instructions (BIO-PLEX Phosphoprotein Detection Kit, BIO-RAD Laboratories). […] After the final wash, beads were resuspended in 125 μL/well of bead suspension buffer, shaken for 30 seconds, and read on an array reader (BIO-PLEX, BIO-RAD Laboratories) according to the manufacture's instructions. Data were analyzed using analytical software (BIO-PLEX MANAGER 3.0, BIO-RAD Laboratories). […]

A further assay deals with T2, muIL-27 (Mus musculus, UniProt O35228+Q8K3I6).
T2 construct: purchased R&D Systems
T2 sequence (Q8K3I6 29-234): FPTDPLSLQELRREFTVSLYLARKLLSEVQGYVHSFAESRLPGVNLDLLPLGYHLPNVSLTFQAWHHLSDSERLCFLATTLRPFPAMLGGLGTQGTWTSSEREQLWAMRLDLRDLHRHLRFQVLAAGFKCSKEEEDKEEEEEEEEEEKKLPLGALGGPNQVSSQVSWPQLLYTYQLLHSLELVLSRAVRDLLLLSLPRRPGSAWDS
T2 sequence (O35228 19-228): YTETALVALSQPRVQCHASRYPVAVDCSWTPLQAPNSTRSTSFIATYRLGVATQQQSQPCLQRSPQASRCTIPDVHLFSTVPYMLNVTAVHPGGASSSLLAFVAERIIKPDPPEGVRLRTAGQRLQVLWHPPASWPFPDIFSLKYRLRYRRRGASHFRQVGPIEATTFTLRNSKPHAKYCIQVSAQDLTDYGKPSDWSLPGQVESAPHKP
The description is as above. The format is cell-based. To be noted: ligand muIL-27 at EC90 (0.2 nM).
From the text: as §1, §2, §3

In the case of “human IL-27RA-Fc5: Extracellular domain of human IL27RA (amino acids 1 to 512 of SEQ ID NO:3) fused to Fc5, effector minus human gamma1 Fc; SEQ ID NO:16”, the 50% inhibitory concentration (IC50) turned out to be 0.32 nM with huIL-27 and 0.14 nM in the assay with muIL-27.

The term IC50 denotes the concentration that inhibits the measured activity by half.
